Measured values reported in patent US20130171179A1 (OREGON HEALTH AND SCIENCE UNIVERSITY, published 2013).
Primed or numbered codes have the meaning given here. Ends that are not written are not given here. FITC′ = fluorescein isothiocyanate label

How the values were obtained:
[1] = target: T1, recombinant IAg7 (rIAg7; RTL450), single polypeptide comprising the β1 and α1 domains of the MHC class II … (mouse); assay: disulfide capture of FITC-labeled peptides, SDS-PAGE
T1 construct: no peptide attached; Internal C17-C79 disulfide bond; also called empty rIAg7; rIA7
T1 chain: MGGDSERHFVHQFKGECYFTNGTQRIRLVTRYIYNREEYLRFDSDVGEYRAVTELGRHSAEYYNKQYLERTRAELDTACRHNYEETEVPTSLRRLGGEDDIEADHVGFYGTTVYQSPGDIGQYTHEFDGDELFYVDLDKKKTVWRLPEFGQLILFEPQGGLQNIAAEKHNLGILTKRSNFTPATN

[2] = target: T1, recombinant IAg7 (rIAg7; RTL450), …; assay: disulfide capture of amino-terminal truncated peptides, SDS-PAGE
Method: (§1) A mixture of 10:1 peptide:rIAg7 at 200 μg/ml, 100 mM NaPO₄ pH 6.5; 150 mM NaCl; 0.05% SDS; and 0.01% NaN₃ was produced. After inspecting the mixture for any precipitation, reactions were incubated at 37° C. for 60 hours. Analysis of ability of redox capture conditions to facilitate peptide capture by MHC was performed as follows: 20 μl aliquots at various time points were mixed with an equal volume of 2× electrophoresis sample buffer (1% glycerol, 500 mM Tris, 0.2% SDS, and bromophenol blue at pH 8.0). Samples were then placed on ice for 30 minutes, heated at 90° C. for 6 minutes with or without β-mercaptoethanol and separated by 10-20% SDS-PAGE followed by Coomassie Blue staining to visualize the proteins. Proteins were quantified by densitometry scanning using Molecular Imager FX 5 and Quantity One software (Bio-Rad, Hercules, Calif.).
Coomassie stained bands (29 kD and 31 kD, as indicated) were quantified to determine an initial rate of capture (FIG. 3). Insulin B:16-23 peptide (FITC-[…]; SEQ ID NO: 1) and rIAg7 were mixed (10:1, peptide:rIAg7) in 100 mM NaPO₄, pH 6.5, 150 mM NaCl, 0.05% SDS, and 0.01% NaN₃ and allowed to incubate for the indicated time.

[3] = target: T2, recombinant murine I-A^b (β1α1 RTL) (mouse); assay: disulfide capture, SDS-PAGE
T2 construct: Single-chain two-domain MHC class II polypeptide, with no peptide attached before loading; also called rI-A^b RTL; rIAb
T2 chain: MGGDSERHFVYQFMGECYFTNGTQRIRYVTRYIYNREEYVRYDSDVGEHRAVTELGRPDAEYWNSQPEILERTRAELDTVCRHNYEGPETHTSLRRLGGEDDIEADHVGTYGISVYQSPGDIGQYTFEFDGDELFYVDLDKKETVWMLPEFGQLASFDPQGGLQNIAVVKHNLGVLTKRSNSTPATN

[4] = target: T3, recombinant human DR2 (β1α1 RTL) (human); assay: disulfide capture, SDS-PAGE
T3 construct: Single-chain two-domain MHC class II polypeptide, with no peptide attached before loading; also called rDR2; DR2 RTL
T3 chain: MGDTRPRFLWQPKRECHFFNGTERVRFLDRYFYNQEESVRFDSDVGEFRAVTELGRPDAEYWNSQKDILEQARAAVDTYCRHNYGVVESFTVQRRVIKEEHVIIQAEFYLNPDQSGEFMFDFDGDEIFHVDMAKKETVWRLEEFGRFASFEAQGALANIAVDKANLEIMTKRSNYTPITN

[5] = target: T1, recombinant IAg7 (rIAg7; RTL450), …; assay: disulfide capture, Coomassie stained SDS-PAGE
Method: as §1
A recombinant form of IAg7 (rIAg7) comprising the β1 and α1 domains of the MHC class II molecule expressed as a single polypeptide (rIAg7; RTL450-series) was designed. IAg7-derived constructs are readily produced in E. coli, are well-behaved in aqueous buffers, and bind antigenic peptides. All MHC class II β1 domains comprise a disulfide bond between cysteine 17 and cysteine 79. Insulin B:9-23 is an antigenic peptide that binds IAg7 and comprises a cysteine residue at position 19. […]

{FITC′}-SHLVEALYLCAGERG [FITC-labeled insulin B:9-23 C18 variant (cysteine moved to position 18)]: binds [1].

{FITC′}-YLVCGERG (The C-terminal 8 amino acids of B:9-23) [FITC-labeled 8-mer insulin B:16-23 peptide]: binds [2].

B1: FITC-labeled insulin B:9-23 peptide, wild-type sequence (C19) (peptide)
peptide: {FITC′}-SHLVEALYLVCGERG
notes: also called Wild-type insulin B:9-23 peptide (C19); amino-terminal FITC-coupled B:9-23
B1: binds [1].

B2: S45C mutated mouse MOG35-55 (peptide)
peptide: MEVGWYRPPFCRVVHLYRNGK
notes: also called mMOG35-55 S45C variant; mouse MOG35-55 S45C variant
B2: binds [3].

MEVGWYRSCFSRVVHLYRNGK (also called hMOG35-55 P43C variant) [MOG35-55 P43C variant]: binds [4].

MEVGWYRCPFSRVVHLYRNGK (also called hMOG35-55 S42C variant) [MOG35-55 S42C variant]: binds [4].

B3: insulin B:9-23 peptide (peptide)
peptide: SHLVEALYLVCGERG
notes: Synthetic peptide; also called Insulin B:9-23 (WT); InsB:9-23
B3: binds [5].

{FITC′}-SHLVEALYLVACERG [FITC-labeled insulin B:9-23 C20 variant (cysteine moved to position 20)]: binds [1].
